This assay addresses human somatostatin receptor 2, Tango construct (human) (UniProt P30874).

Chain of human somatostatin receptor 2, Tango construct (human) (P30874 whole entry): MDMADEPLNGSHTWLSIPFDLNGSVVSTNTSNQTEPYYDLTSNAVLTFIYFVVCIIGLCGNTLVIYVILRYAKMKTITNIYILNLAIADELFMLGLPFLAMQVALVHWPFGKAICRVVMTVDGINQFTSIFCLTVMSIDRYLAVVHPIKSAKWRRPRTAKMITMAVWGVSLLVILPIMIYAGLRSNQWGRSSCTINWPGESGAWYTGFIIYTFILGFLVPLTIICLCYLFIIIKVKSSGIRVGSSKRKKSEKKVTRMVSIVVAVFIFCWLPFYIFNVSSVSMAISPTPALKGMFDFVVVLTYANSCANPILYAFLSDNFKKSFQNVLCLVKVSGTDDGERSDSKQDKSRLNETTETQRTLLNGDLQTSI

Regarding octreotide (peptide), the EC50, PRESTO-Tango β-arrestin recruitment assay came to 0.9 nM.

The values above are taken from article PMC11336141.
